From patent US12264201B2, “Bispecific antibody targeting IL-1R1 and NLPR3” (University of Ulster, priority 2018, dated 2025)

Legend:
[1] = system: Bone Marrow Derived Macrophages (BMDMs); assay: Inflammasome activation assay in bone marrow derived macrophages (cytokine ELISA); type: cell-based, C57BL/6 mice; conditions: murine BMDMs, FIG. 36
Description: Bone marrow cells were isolated from the tibias and femurs of C57BL/6 mice. To obtain bone marrow-derived dendritic cells (BMDCs), cells were cultured for 7 days at 37° C. and 5% CO2 in Iscove's modified Dulbecco's medium (IMDM) supplemented with 8% fetal calf serum (FCS), 1% penicillin/streptomycin (GE Healthcare Life Sciences, Marlborough, MA, USA), 1% glutamax (Thermo Fisher Scientific, Waltham, MA, USA) and 20 μM β-mercaptoethanol (Sigma-Aldrich, St. Louis, MO, USA) in the presence of 20 ng/mL gm-CSF (Preprotech, Rocky Hill, NJ, USA). To obtain bone marrow-derived macrophages (BMDMs), cells were cultured for 7 days in Roswell Park Memorial Institute medium (RPMI) supplemented with 10% FCS, 100 U/mL penicillin/streptomycin, 0.1 mM nonessential amino acids, 1% pyruvate and 2 mM L-glutamine (Thermo Fisher Scientific) in the presence of 20 ng/mL m-CSF (eBioscience)
For in vitro stimulation, 0.1×10^6 cells per well were added to 96-well flat-bottom plates (Greiner Bio-One, Kremsmunster, Austria). Cells were first primed with LPS (50 ng/mL) for 2 hours, after which cholesterol crystals (2 mg/mL) were added in the presence or absence of MCC950 (1 μM, Adipogen, San Diego, US) for an additional 4 hours. […]
InflaMab inhibits IL-1beta secretion in BMDMs—see FIG. 36. […] IL-1β release was measured in the supernatant by ELISA.

THP1 cells = assay: IL-1β release from LPS/ATP-stimulated differentiated THP1 cells (ELISA); type: cell-based; conditions: PMA-differentiated THP1; LPS 1 μg/ml 3 h, Ab 30 min (0.0025-2.5 ng/ml or 1 nM), ATP 5 mM 1 h; supernatant ELISA; FIG. 33
Description: THP1 cells, for FIGS. 33a and b, were cultured in 96-well plates at 100,000 cells/200 μl complete media. PMA (100 μg/ml for 72 hours) was used to differentiate THP-1 cells into macrophages. Following 24 hours of rest, differentiated THP1 cells were stimulated with LPS (1 μg/ml) for 3 hours, treated with MCC950 (1 μM) or the IL-1R1/NLRP3 Ab in a dose dependent fashion from 0.0025 ng/ml to 2.5 ng/ml for FIG. 33a or with IL-1R1/NLRP3 Ab (1 nM) for FIG. 33b or with IgG control antibody for 30 minutes, followed by ATP (5 mM) for 1 hour. IL-1β release was measured in the supernatant by ELISA.

B1: InflaMab: 210 kDa bispecific mouse antibody to IL-1R1 and NLRP3; light chain SEQ ID NO: 57, heavy chain with scFv SEQ ID NO: 59 (protein)
light: MVSSAQFLGLLLLCFQGTRCDIVMTQSPATLSVTPGDRVSLSCRASQSISDYLSWYQQRSHESPRLIIKYASQSISGIPSRFSGSGSGSDFTLSINSVEPEDVGVYYCQHGHSFPLTFGSGTKLELKRADAAPTVSIFPPSSEQLTSGGASVVCFLNNFYPKDINVKWKIDGSERQNGVLNSWTDQDSKDSTYSMSSTLTLTKDEYERHNSYTCEATHKTSTSPIVKSFNRNEC
heavy: MGWTLVFLFLLSVTAGVHSQIQLVQSGPELRKPGETVRISCKASGYPFTTAGLQWVQKMSGKGLKWIGWMNTQSEVPKYAEEFKGRIAFSLETAASTAYLQINNLKTEDTATYFCAKSVYFNWRYFDVWGAGTTVTVSSAKTTAPSVYPLAPVCGDTTGSSVTLGCLVKGYFPEPVTLTWNSGSLSSGVHTFPAVLQSDLYTLSSSVTVTSSTWPSQSITCNVAHPASSTKVDKKIEPRGPTIKPCPPCKCPAPNLLGGPSVFIFPPKIKDVLMISLSPIVTCVVVDVSEDDPDVQISWFVNNVEVHTAQTQTHREDYNSTLRVVSALPIQHQDWMSGKEFKCKVNNKDLPAPIERTISKPKGSVRAPQVYVLPPPEEEMTKKQVTLTCMVTDFMPEDIYVEWTNNGKTELNYKNTEPVLDSDGSYFMYSKLRVEKKNWVERNSYSCSVVHEGLHNHHTTKSFSRTPGKGSAGGSGGDSEVQLVESGGGLVKPGGSLKLSCAASGFTFSDYYMYWVRQTPEKRLEWVATISDGGTYTYYPDSVKGRFTISRDNAKNNLYLQMNSLKSEDTAMYYCARGWVSTMVKLLSSFPYWGQGTLVTVSAGGGGSGGGGSGGGGSQAVVTQESALTTSPGETVTLTCRSSTGAVTTSNYANWVQEKPDHLFTGLIGGTNNRAPGVPARFSGSLIGDKAALTITGAQTEDEAIYFCALWYSNYWVFGGGTKLTVLGQPK
**Q.** How did the “secretion of TNFalpha” value ([1]; same cells, specificity) turn out when B1 was run?
**A.** no effect

**Q.** And the IL-1beta secretion ([1]; LPS 50 ng/ml, Inflamab 30 min, Alum 50 μg/ml 1 h, ELISA)?
**A.** dose-dependently inhibit

**Q.** And the IL-1β release (THP1 cells)?
**A.** prevents
